Publication PMC2362229

Test system: COc1cccc2c1C(=O)c1c(O)c3c(c(O)c1C2=O)C[C@@](O)(C(C)=O)C[C@@H]3O[C@H]1C[C@H](N)[C@H](O)[C@H](C)O1
Test: cells, lysate or membranes named
Conditions: other: Lineweaver-Burk plots; rat canalicular vesicles; pH 7.4

Sequence of Mdr1b P-gp (Rattus norvegicus) (chain, as listed by the source): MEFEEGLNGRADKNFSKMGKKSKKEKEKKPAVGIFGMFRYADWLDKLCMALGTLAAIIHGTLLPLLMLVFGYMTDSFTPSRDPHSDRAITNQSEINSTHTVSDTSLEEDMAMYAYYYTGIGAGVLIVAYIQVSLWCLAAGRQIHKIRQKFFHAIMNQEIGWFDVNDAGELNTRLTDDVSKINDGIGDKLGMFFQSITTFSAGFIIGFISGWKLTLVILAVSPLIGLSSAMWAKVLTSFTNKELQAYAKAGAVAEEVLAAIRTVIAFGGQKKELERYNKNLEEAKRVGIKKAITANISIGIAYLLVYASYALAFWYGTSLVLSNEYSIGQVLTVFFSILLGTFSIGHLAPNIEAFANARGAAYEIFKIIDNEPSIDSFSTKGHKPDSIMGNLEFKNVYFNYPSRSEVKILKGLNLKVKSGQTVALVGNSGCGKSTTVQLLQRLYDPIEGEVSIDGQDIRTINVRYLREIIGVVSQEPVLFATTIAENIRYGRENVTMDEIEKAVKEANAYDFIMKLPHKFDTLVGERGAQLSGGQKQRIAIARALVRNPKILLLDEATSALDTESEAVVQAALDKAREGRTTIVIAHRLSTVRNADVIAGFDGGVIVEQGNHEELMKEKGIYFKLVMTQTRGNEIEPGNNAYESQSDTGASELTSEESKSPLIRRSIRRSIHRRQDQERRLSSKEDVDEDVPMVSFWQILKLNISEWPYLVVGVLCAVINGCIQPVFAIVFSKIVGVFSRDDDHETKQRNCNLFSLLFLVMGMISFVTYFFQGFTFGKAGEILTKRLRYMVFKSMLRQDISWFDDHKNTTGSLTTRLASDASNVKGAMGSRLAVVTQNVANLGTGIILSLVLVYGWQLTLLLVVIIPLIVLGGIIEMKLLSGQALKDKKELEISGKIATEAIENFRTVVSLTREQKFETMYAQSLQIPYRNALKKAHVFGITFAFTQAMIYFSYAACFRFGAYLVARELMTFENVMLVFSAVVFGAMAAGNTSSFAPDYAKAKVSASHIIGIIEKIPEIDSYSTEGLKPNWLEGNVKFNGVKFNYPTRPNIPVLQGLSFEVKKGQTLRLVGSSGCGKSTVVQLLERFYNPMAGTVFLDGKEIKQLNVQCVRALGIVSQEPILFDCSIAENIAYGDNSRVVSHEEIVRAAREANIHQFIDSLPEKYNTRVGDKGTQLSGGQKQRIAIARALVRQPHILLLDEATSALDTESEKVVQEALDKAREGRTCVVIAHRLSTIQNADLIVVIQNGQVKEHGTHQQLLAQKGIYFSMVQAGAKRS

Mdr1b P-gp (Rattus norvegicus)
Km: 33 µM
